Source: patent US20230330254A1 (Regeneron Pharmaceuticals, Inc., priority 2022, published 2023)

Key:
HEK293/CRE-Luc cells = assay: Flow cytometry cell binding, HEK293/CRE-Luc control cells (Example 18); parameters: species or system human; conditions: Table 30, control cells lacking GLP1R; for EC50: no unit printed in table (text reads values as M); for HEK293/CRE-Luc Flow S/N: signal to noise
Protocol: GLP1R agonist linker payloads were conjugated to anti-GLP1R antibodies via N-terminal heavy or light chain Glutamine (Q) tags. Several resulting anti-GLP1R-GLP1R agonist antibody tethered drug conjugates (ATDCs) and their unconjugated parental antibodies were tested for cell-based binding activity. The cell surface binding of the anti-GLP1R ATDCs to human GLP1R (HEK293/CRE-Luc/hGLP1R), cynomolgus GLP1R (HEK293/CRE-Luc/mfGLP1R), and control cells lacking expression of GLP1R (HEK293/CRE-Luc) was assessed via flow cytometry. For the assay, 61,000-230,000 cells were suspended in PBS, w/2% FBS and 0.2% sodium azide (staining buffer) in 96 well V-bottom plates and incubated for 30 minutes at 4° C. with three-fold serial dilutions of the anti-GLP1R ATDCs, non-binding control ATDCs, or unconjugated anti-GLP1R antibodies. The last well in each row of the plate served as a blank control containing only secondary antibody and was plotted as a continuation of the 3-fold serial dilution. […] Cells were then washed once and stained with a cell viability dye (Live/dead Fixable Green Dead Cell Stain Kit for 488 nm excitation, Molecular Probes cat #L34970) at 1× in PBS for 20 minutes at 4° C. Cells were washed once in staining buffer, fixed for 20 minutes at 4° C. using a 50% solution of Cytofix (BD Biosciences, Cat #554655) diluted in PBS, and washed again in staining buffer. Samples were filtered through Pall 96 well plate PP/PE mesh filter system and collected in Costar 96 well plate. Samples were run on the iQue flow cytometer (Intellicyte) and results were analyzed using Forecyte analysis software (Intellicyte) to calculate the mean fluorescent intensity (MFI) after gating for live cells. EC50 values were determined using a four-parameter logistic equation over a 10-point dose response curve (GraphPad Prism). The signal to noise (S/N) was determined by taking the ratio of the highest MFI on the dose response curve to the MFI in the secondary alone wells.

[1] = target: T1, hGLP1R-MMH (N-terminal region of human GLP1R) (Homo sapiens, UniProt P43220); assay: Biacore binding kinetics (surface plasmon resonance); conditions: 25° C.; for Ka: association rate
T1 construct: the N-terminal ectodomain of human GLP1R expressed with a myc-myc hexahistidine tag
Protocol: The equilibrium dissociation constant (KD) for GLP1R binding to different unconjugated GLP1R monoclonal antibodies (mAbs) or to GLP1R antibody tethered drug conjugates (ATDCs) was determined using a real-time surface plasmon resonance biosensor using a Biacore 3000, Biacore S200, Biacore 4000, Biacore T-200, or a Sierra Sensor MASS-2 instrument. All binding studies were performed in 10 mM HEPES, 150 mM NaCl, 3 mM EDTA, and 0.05% v/v Surfactant Tween-20, pH 7.4 (HBS-ET) running buffer at 25° C. The Biacore CM5 sensor chip surface was first derivatized by amine coupling with human Fc specific mouse mAb (REGN2567) to capture different GLP1R mAbs or ATDCs. Different concentrations (100, 90, 33.3, 30, 11.1, 10, 3.7, 3.3 and 1.1 nM) of the N-terminal region of human GLP1R expressed with a myc-myc-hexahistidine tag (“hexahistidine tag” disclosed as SEQ ID NO: 441) (hGLP1R-MMH) prepared in HBS-ET running buffer were injected over the GLP1R mAb captured surface for 240 or 300 sec at a flow rate of 50 μL/min and their dissociation in HBS-ET running buffer was monitored for 10 minutes. At the end of each cycle, the GLP1R mAb or ATDC capture surface was regenerated using a 10 sec injection of 20 mM phosphoric acid.
The association rate (ka) and dissociation rate (kd) were determined by fitting the real-time binding sensorgrams to a 1:1 binding model with mass transport limitation using Scrubber 2.0c curve-fitting software. Binding dissociation equilibrium constant (KD) and dissociative half-life (t %2) were calculated from the kinetic rates as: […]

human GLP1R = target: T2, human GLP1R (Homo sapiens, UniProt P43220); assay: Flow cytometry cell binding, HEK293/CRE-Luc/hGLP1R (Example 18); conditions: Table 30, no unit printed in table (text b1840 reads values as M), experiments A, C, D
T2 construct: engineered to express full-length human GLP1R, cynomolgus GLP1R; expressed in transfected cells; host or cells: HEK293/CRE-Luc
Protocol: GLP1R agonist linker payloads were conjugated to anti-GLP1R antibodies via N-terminal heavy or light chain Glutamine (Q) tags. […] The cell surface binding of the anti-GLP1R ATDCs to human GLP1R (HEK293/CRE-Luc/hGLP1R), cynomolgus GLP1R (HEK293/CRE-Luc/mfGLP1R), and control cells lacking expression of GLP1R (HEK293/CRE-Luc) was assessed via flow cytometry. […] The last well in each row of the plate served as a blank control containing only secondary antibody and was plotted as a continuation of the 3-fold serial dilution. […] Samples were filtered through Pall 96 well plate PP/PE mesh filter system and collected in Costar 96 well plate. Samples were run on the iQue flow cytometer (Intellicyte) and results were analyzed using Forecyte analysis software (Intellicyte) to calculate the mean fluorescent intensity (MFI) after gating for live cells. EC50 values were determined using a four-parameter logistic equation over a 10-point dose response curve (GraphPad Prism). The signal to noise (S/N) was determined by taking the ratio of the highest MFI on the dose response curve to the MFI in the secondary alone wells.

T1 sequence (P43220 24-139 limits assumed): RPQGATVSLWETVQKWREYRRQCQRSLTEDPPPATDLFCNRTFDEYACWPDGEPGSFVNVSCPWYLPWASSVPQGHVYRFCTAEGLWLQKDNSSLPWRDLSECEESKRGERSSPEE
T2 sequence (P43220 24-463): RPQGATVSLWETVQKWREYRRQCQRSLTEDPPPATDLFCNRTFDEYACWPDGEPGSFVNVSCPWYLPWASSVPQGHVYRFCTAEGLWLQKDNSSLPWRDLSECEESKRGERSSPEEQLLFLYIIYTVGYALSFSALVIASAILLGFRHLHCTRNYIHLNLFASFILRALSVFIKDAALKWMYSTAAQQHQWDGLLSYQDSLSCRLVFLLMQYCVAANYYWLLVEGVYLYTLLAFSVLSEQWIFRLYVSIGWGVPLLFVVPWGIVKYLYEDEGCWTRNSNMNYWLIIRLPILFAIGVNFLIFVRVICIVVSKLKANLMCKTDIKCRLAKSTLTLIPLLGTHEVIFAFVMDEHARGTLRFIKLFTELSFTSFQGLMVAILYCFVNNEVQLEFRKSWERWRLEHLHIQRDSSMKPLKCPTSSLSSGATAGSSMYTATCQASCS

Row | Molecule | EC50 (HEK293/CRE-Luc cells) [pM] | HEK293/CRE-Luc Flow S/N (HEK293/CRE-Luc cells) | Ka ([1]; hGLP1R-MMH) [M⁻¹ s⁻¹] | dissociation rate constant (kd) ([1]; hGLP1R-MMH) [s⁻¹] | EC50 (human GLP1R) [pM] | 90 nM hGLP1R.mmh Bound ([1]; antibody captured on anti-human Fc surface, 90 nM hGLP1R-MMH) [RU] | Kd ([1]; hGLP1R-MMH, calculated from the kinetic rates) [pM]
1 | H2aM30341N (antibody, V domains shown) VH: QVQLQQWGAGLLKPSETLSLTCAVYGGSFSGYYWSWIRQPPGKGLEWIGEINHAGSTNYNPSLKSRITISVDTSKNQFSLKLSSVTAADTAVYYCARGWYYGSGSYHRNWFDPWGQGTLVTVSS VL: EIVLTQSPGTLSLSPGERATLSCRASQSVYYSYLAWYQQKPGQAPRLLIYGASNRATGIPDRFSGSGSGTDFTLTISRLEPEDFAVYYCQQYGNSPWTFGQGTKVEIK | > 100000 | 11.8 | 224000 | 7.74e-05 | – | – | –
2 | REGN8051 (antibody, V domains shown) VH: QVQLVESGGGVGQPGRSLRLSCAASGFTFSRNAMHWVRQAPGKGLEWVAVISYDGSNKHYADSVKGRFTISRDNSKNTLYLEMNSLRVEDTAVYYCAKGGIPFDYWGQGTLVTVSS VL: DIVMTQSPLSSPVTLGQPASISCRSSQSLVHFDGNTYLSWLHQRPGQPPRLLIYKISNRFSGVPDRFSGSGAGTDFTLKISRVEPEDVGVYYCMHATQFPYTFGQGTKLEIK | > 100000 | 18.0 | 61900 | 0.000211 | – | – | –
3 | H4H30439P (antibody, V domains shown) VH: QVQLVESGGGVVQPGRSLRLSCAASGFTFSGYGIHWVRQAPGKGLVWVAVIWYDGSFKYYADSVKGRFTISRDNSKNTLYLQMNSLRAEDTAVYYCARGDSSSSGRYYYYGMDVWGQGTTVTVSS VL: DIQMTQSPSSLSASVGDRVTITCRASQGIRNDLGWYQQKPGTAPKRLIFAASSLQSGVPSRFSGSGSGTEFTLTISSLQPEDFATYYCLQHNNYPPTFGGGTKVEIK | – | – | 277000 | 0.000189 | 769 | 152.4 | 681
